Reference: patent publication US20200291071A1

Legend:
[1] = target: r6,Glm-Tei-pseudoaglycone (compound 12); test: ITC
[2] = target: r6,Glm-Tei-pseudoaglycone (compound 12); test: ITC (isothermal titration calorimetry), exothermic injections, sigmoidal isotherm over molar ratio about 0.45 to 1.85
[3] = target: r6,Glm-Tei-pseudoaglycone (compound 12)
[4] = target: r4,Glm-Tei-pseudoaglycone (compound 6)

Molecule	Kd [1]	Kd [2]	Km (acyl-transfer kinetics, HPLC) [3]	Km (acyl-transfer kinetics, HPLC) [4]
Dbv27 (methyltransferase encoded by gene dbv27) (enzyme)	5 µM	5.1 µM	–	–
Orf11*S (acyltransferase, single mutant W163A of Orf11*) (protein) MGSSHHHHHHSSGLVPRGSHMMMDPETVRIALGLEERTAAWLTELDELGPPAEPVRLPRGEEARDLLRRLEVPELDAEEIVAAAPDPDRDPALWWLLERTHHAIVRHMGDHRAKPRGGPPLPYEGGAAARYFHVYVFLATVPAVRRFHAERGIPDEVGWETLTQLGELVAIHRRKYGQGGMNMQAWTTYHLRGILYRLGRLQFSLATGKDGTPHLGLHVPEWGGPLLPKAYDESLHRARPFFDRHFPEHGARVAWGSSWMLDPQLEEYLTEDSNIIQLARFWTLTDSAPEPGNADGDSSILEFVFRYNGQPLDELPQRSSLERAVIAHLKAGRHWHMRTGFVKLP	–	–	Km=0.3±0.03 mM	Km=0.07 mM
